Test results from IntAct's records for PubMed 7758105.

B1: Tumor necrosis factor receptor superfamily member 1A (Homo sapiens), P19438 (parent)
chain: MGLSTVPDLLLPLVLLELLVGIYPSGVIGLVPHLGDREKRDSVCPQGKYIHPQNNSICCTKCHKGTYLYNDCPGPGQDTDCRECESGSFTASENHLRHCLSCSKCRKEMGQVEISSCTVDRDTVCGCRKNQYRHYWSENLFQCFNCSLCLNGTVHLSCQEKQNTVCTCHAGFFLRENECVSCSNCKKSLECTKLCLPQIENVKGTEDSGTTVLLPLVIFFGLCLLSLLFIGLMYRYQRWKSKLYSIVCGKSTPEKEGELEGTTTKPLAPNPSFSPTPGFTPTLGFSPVPSSTFTSSSTYTPGDCPNFAAPRREVAPPYQGADPILATALASDPIPNPLQKWEDSAHKPQSLDTDDPATLYAVVENVPPLRWKEFVRRLGLSDHEIDRLELQNGRCLREAQYSMLATWRRRTPRREATLELLGRVLRDMDLLGCLEDIEEALCGPAALPPAPSLLR
partner: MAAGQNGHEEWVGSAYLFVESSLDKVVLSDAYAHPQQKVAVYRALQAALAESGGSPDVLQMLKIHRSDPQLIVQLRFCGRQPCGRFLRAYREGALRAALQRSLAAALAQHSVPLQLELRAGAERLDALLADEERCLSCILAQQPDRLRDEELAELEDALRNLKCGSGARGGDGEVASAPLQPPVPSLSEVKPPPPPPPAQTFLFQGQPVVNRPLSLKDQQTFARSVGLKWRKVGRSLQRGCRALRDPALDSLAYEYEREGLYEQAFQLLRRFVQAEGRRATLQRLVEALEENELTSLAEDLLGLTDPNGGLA

Variants of: B1
Conditions: with tradd_human TRADD

Row | effect of a mutation on the interaction | Variant
1 | decreasing interaction | K372A;F374A;R376A
